According to patent publication US7812117B2, “Vasostatin as marrow protectant” (The United States of America as represented by the …, priority 1998, dated 2010):

Assays:
[1] = tested on: human Burkitt lymphoma cell line CA46; assay: CA46 tumor size and weight in irradiated BALB/c nu/nu mice treated with MBP or MBP-vaso; assay type: in vivo; details: 400 rad, CA46 s.c.; MBP 40 μg/mouse/day or MBP-vaso 60 μg/mouse/day s.c.
Protocol: To examine this further, 7 week old BALB/c nu/nu mice were first irradiated with 400 rad. After 24 hr, the mice were incoculated s.c. with the human Burkitt lymphoma cell line CA46. One group of mice (n=12) was treated s.c. with the control protein maltose binding protein (MBP, 40 μg/mouse/day), whereas another group (n=12) was treated s.c. with MBP-vaso (60 μg/mouse/day). Some of the mice from each group were killed on day 15, whereas the other mice were kept for up to 2.5 months.

[2] = tested on: peripheral white blood cells; assay: Peripheral white blood cell counts after total body irradiation of C57BL/6N mice; assay type: in vivo; details: vaso 300 μg/mouse/day s.c.
Protocol: In a subsequent experiment, groups of 8 week old C57BL/6N mice were irradiated with either 300 or 400 rad total body irradiation and treated the mice daily with s.c. inoculations of either buffer of vaso (300 μg/mouse/day). Peripheral white blood cell counts were obtained on days 5 and 9 post irradiation. On day 5, the total white cell count in the mice that had received 300 rad total body irradiation and had been treated with buffer was 1.2×10^3/mm^3 as opposed to 2.14×10^3/mm^3 in the mice treated with vaso. Also on day 5 post-irradiation, the total white cell count in the mice that had received 400 rad total body irradiation and had been treated with buffer was 0.66×10^3/mm^3 as opposed to 1.22×10^3/mm^3 in the mice treated with vaso. On day 9 post irradiation, the total white cell count in the mice that had received 400 rad total body irradiation and had been treated with buffer was 0.79×10^3/mm^3 as opposed to 1.37×10^3/mm^3 in the mice treated with vaso.

murine bone marrow cells [3] = assay: Murine bone marrow cell number in culture (Owen's reagent formazan absorbance at 490 nm); assay type: cell-based, mouse
Protocol: FIG. 7 is a series of bar graphs showing the effects of vaso on growth-factor induced proliferation of bone marrow cells with or without methotrexate. Bone marrow cells populations, obtained from the femural cavities of C57BL/6NCR mice (3.5 months of age), were cultured in 24 well tissue culture plates in culture medium alone or medium containing a mixture of the growth factors (GF) IL-3 (20 ng/ml), IL-6 (100 ng/ml) and Stem Cell Factor (100 ng/ml). Vaso was added to the cultures at concentrations ranging between 1.25 and 10 μg/ml. Methotrexate was added to the cultures at the concentration of 100 nM. FIG. 7A is a bar graph of cell proliferation as measured by ^3H thymidine incorporation during the final 22 hr of a 7-day culture. The results reflect the mean cpm of triplicate cultures. FIG. 7B is a bar graph of cell numbers measured as mean absorbance (490 nM) after conversion of Owen's reagent into colored formazan product (One Solution Reagent, Promega).
FIG. 9 is a series of bar graphs showing that vaso increases bone marrow cell proliferation in vitro. Bone marrow cells populations, obtained from the femural cavities of C57BL/6NCR mice (8 weeks of age), were cultured in culture medium alone or in medium supplemented with a mixture of IL-3 (20 ng/ml), IL-6 (100 ng/ml) and Stem Cell Factor (SF, 100 ng/ml). […] FIG. 9A is a bar graph of cell proliferation as measured by ^3H thymidine incorporation during the final 20-23 hr of a 4, 5 or 6-day culture. FIG. 9B is a bar graph of cell number measured as absorbance (490 nM) after conversion of Owen's reagent into colored formazan product (One Solution Reagent, Promega).
In the absence of exogenously added growth factors, vaso at the highest concentration used (10 μg/ml) had low level stimulatory effect (approximately 2-fold stimulation of background cpm).
Stimulation of bone marrow cell proliferation by vaso was associated with an increased number of bone marrow cells, measured as absorbance from the conversion of Owen's reagent into a colored formazan product (One Solution Reagent, Promega, Madison. Wis.). […]

[4] = tested on: CD34- mononuclear cell population; assay: Proliferation of negatively selected human CD34- mononuclear cells; assay type: cell-based; details: Stem Cell Factor and Flt-3 ligand alone or in conjunction with vaso
Protocol: The purified human CD34+ cells along with the negatively selected CD34− mononuclear cell population were cultured in RPMI 1640 medium containing 15% FBS. Human Stem Cell Factor (300 ng/ml) and Flt-3 ligand (300 ng/ml) were added to the culture medium. […] Thus, purified hematopoietic cells from both mouse and man proliferate in response to vaso.

[5] = tested on: human umbilical vein-derived (HUVEC) endothelial cells; details: as previously reported (Pike et al., 1998; 1999); cited from earlier work
[6] = tested on: fetal bovine heart endothelial cells (FBHEC); details: as previously reported (Pike et al., 1998; 1999); cited from earlier work
murine bone marrow cells [7] = assay: Murine bone marrow cell proliferation in vitro ([3H] thymidine incorporation)
[8] = vaso 10 μg/ml in the presence of growth factors

B1: vaso: N-terminal domain of calreticulin (amino acids 1-180, SEQ ID NO:3); given as fusion protein with maltose binding protein, MBP-vaso (protein)
chain: EPAVYFKEQFLDGDGWTSRWIESKHKSDFGKFVLSSGKFYGDEEKDKGLQTSQDARFYALSASFEPFSNKGQTLVVQFTVKHEQNIDCGGGYVKLFPNSLDQTDMHGDSEYNIMFGPDICGPGTKKVHVIFNYKGKNVLINKDIRCKDDEFTHLYTLIVRPDNTYEVKIDNSQVESGSLE
modifications: Vasostatin
- tumor size [1]: 0.67 cm^2
- tumor weight [1]: 0.22 g
- total white cell count, day 5 post irradiation ([2]; 300 rad total body irradiation, buffer 1.2×10^3): 2.14×10^3 /mm^3
- total white cell count, day 5 post irradiation ([2]; 400 rad total body irradiation, buffer 0.66×10^3): 1.22×10^3 /mm^3
- total white cell count, day 9 post irradiation ([2]; 400 rad total body irradiation, buffer 0.79×10^3): 1.37×10^3 /mm^3
- number of cells in culture (murine bone marrow cells [3]; vaso 10 μg/ml added to medium alone): increased only minimally
- number of cells counted after 5 days of culture (murine bone marrow cells [3]; vaso 10 μg/ml, growth factors (IL-3, IL-6 and Stem Cell Factor) either alone or with etoposide 77 nM): increased significantly
- number of living bone marrow cells in culture (murine bone marrow cells [3]; vaso with methotrexate 100 nM and growth factors): increase in the number of living bone marrow cells
- proliferation of CD34- cell population [4]: proliferated minimally
- proliferation of primary cultures of HUVEC [5]: consistently inhibited the proliferation
- proliferation of primary cultures of FBHEC [6]: consistently inhibited the proliferation
- murine bone marrow cell proliferation with or without cisplatinum (murine bone marrow cells [7]; Vaso 10 μg/ml, IL-3 (30 μg/ml), cisplatinum between 5 and 0.02 nM): enhanced murine bone marrow cell proliferation
- growth of murine hematopoietic cells after 5 or 6 days of culture (murine bone marrow cells [7]; all used at 10 μg/ml, IL-3 20 ng/ml): stimulated the growth
- bone marrow cell proliferation vs growth factors alone (murine bone marrow cells [7]; day 5, vaso 12.5-50 μg/ml added to IL-3 plus IL-6 plus Stem Cell Factor): 21-54 fold
- mafosfamide concentrations at which growth stimulatory effect of vaso was appreciable (murine bone marrow cells [7]; mafosfamide added after 3 days of culture): ≤ 8 µg/mL
- increase in cell proliferation on day 5 (murine bone marrow cells [7]; unseparated marrow, vaso 10 μg/ml, IL-3 20 ng/ml): 3.4 fold
- direct stimulation of bone marrow cell proliferation (murine bone marrow cells [7]; vaso 10 μg/ml in medium alone, no growth factors): failed to directly stimulate
- promotion of bone marrow cell proliferation on day 5 (murine bone marrow cells [7]; [8]): 39 fold
- promotion of bone marrow cell proliferation on day 6 (murine bone marrow cells [7]; [8]): 17 fold
- promotion of bone marrow cell proliferation on day 4 (murine bone marrow cells [7]; vaso 10 μg/ml in the presence of growth factors (IL-3, IL-6, stem cell factor)): 6.5 fold
- stimulation of background cpm (murine bone marrow cells [7]; vaso 10 μg/ml, absence of exogenously added growth factors, 7 day culture): approximately 2 fold
- promotion of bone marrow cell proliferation in the presence of Etoposide (murine bone marrow cells [7]; vaso 10 μg/ml, Etoposide 77 nM, growth factors): to the same or greater degree than in the absence of Etoposide
- increase of IL-3-induced bone marrow proliferation in the presence of Etoposide (murine bone marrow cells [7]; vaso 10 μg/ml, Etoposide 385-15.4 nM, day 5): evident even in the presence of Etoposide
- bone marrow cell proliferation induced by IL-3, day 5 (murine bone marrow cells [7]; vaso 10 μg/ml, IL-3 20 ng/ml): enhanced bone marrow cell proliferation
- enhancement of IL-3 induced response on day 4 (murine bone marrow cells [7]; vaso 10 μg/ml, IL-3 20 ng/ml): approximately 3 fold
- enhancement of proliferative response on day 5 or 6 (murine bone marrow cells [7]; vaso 10 μg/ml, IL-3 or combination of IL-3, IL-6 and Stem Cell Factor): 7-16 fold
- proliferative response on day 3 (murine bone marrow cells [7]; vaso 10 μg/ml, combination of IL-3, IL-6 and Stem Cell Factor): enhanced the response induced by the combination of IL-3, IL-6 and Stem Cell Factor slightly
- proliferation of bone marrow cells exposed to mafosfamide (murine bone marrow cells [7]; vaso 12.5 μg/ml, growth factors, 6 days culture): markedly enhanced
- bone marrow cell proliferation in the presence of methotrexate (murine bone marrow cells [7]; vaso 0.25-10 μg/ml, methotrexate 100 nM and growth factors, 7 day culture): dose-dependently stimulated
